# US10400249B2, “HPPD variants and methods of use” (priority 2014, dated 2019)
# Key:
# T0 soybean plants = assay: greenhouse spray test of T0 soybean plants for tolerance to mesotrione; format: in vivo; settings: 316 grams AI per hectare; for Number of T0 soybean plants with herbicide tolerance rating 0 (completely bleached) / Number of T0 soybean plants with herbicide tolerance rating 1 (slight tolerance) / Number of T0 soybean plants with herbicide tolerance rating 2 (moderate tolerance) / Number of T0 soybean plants with herbicide tolerance rating 3 (nearly perfect tolerance): mesotrione 3X field rate, seven days after treatment
# Procedure: T0 soybean plants expressing an HPPD inhibitor tolerant enzyme of the present invention, along with a gene conferring tolerance to glyphosate and a gene conferring tolerance to glufosinate or having a “plant expression cassette”, which includes only an HPPD inhibitor tolerant enzyme of the present invention, were tested for tolerance to mesotrione. Prior greenhouse trials with the transgenic plants, soy transformants were routinely analyzed for the expression and presence of the transgenes using the ELISA protein detection method (see detailed description under item D and H). Only plants recovering in the selection media and having a detectable HPPD transgene protein expression were used for the herbicide tolerance analysis. A DeVries Tracker Sprayer was calibrated prior to each spraying. The chemical formulation used for mesotrione (MST) testing was Callisto® 4 SC formulation supplemented with ammonium sulfate and methylated rape seed oil (Actirob). Spray tests were conducted using 3× the field rate (equivalent to 9 fluid ounce per acre of the same herbicide formulation that containing 40% the active ingredient (AI), mesotrione), which equals 316 grams AI per hectare. Tolerance was evaluated one week after spraying. […] A tolerance rating of “0” was assigned to plants that their shoot apexes, newly emerged trifoliates and some axillary buds were completely bleached. A rating of “1” was assigned to plants having slight tolerance, i.e., the newest plant shoot tissues had some green leaves and are not bleached completely. A rating of “2” was assigned to plants showing moderate tolerance, i.e., more than 50% of the leaf area of the top three trifoliates showing no chlorosis or bleaching damage. A rating of “3” was assigned to plants showing nearly perfect tolerance, i.e., less than 10% of the leaf area showing chlorosis or very slight bleaching.
# [1] = tested on: Pseudomonas fluorescens HPPD protein; assay: brown color assay: HPPD extracts spotted on solid media containing tyrosine and an HPPD inhibitor; format: biochemical; settings: TBT, DKN and mesotrione 500-2000 uM, compared with PfHPPD and PfEvo33
# Procedure: A specific, although non-limiting, type of assay that can be used to evaluate the HPPD sequences of the invention is a colorimetric assay. In this assay, a YT-broth-type culture medium with 1% agarose, 5 mM L-Tyrosine and 42 mM Succinate, which contains the selection agent for the vector pSE420 (Invitrogen, Karlsruhe, Germany) or a modified version of pSE420 (pSE420(RI)NX) is poured into deep well plates. E. coli culture in the exponential growth phase which contains the vector pSE420-HPPDx (HPPDx means any gene coding for a putative HPPD enzyme/protein) is applied to each well.
# The HPPD PfEvo33 mutant (described in International Patent Application No PCT/US2013/59598 (filed on Sep. 13, 2013) and set forth herein as SEQ ID NO:5) was mutagenized at positions 334 and 336. Saturated mutagenesis of these positions was carried out using the QUIKCHANGE® lightning kit. Mutants were pooled and transformed into DH5alpha E. coli cells. Six hundred individual clones were screened for tolerance to the HPPD inhibitor tembotrione (TBT). The clones were grown in LB media plus kanamycin at 37 degrees C. in a shaker until an OD600 nm of 0.3 was reached. Cultures were then switched to 30 degrees C. and incubated for an additional 17 hours. Cultures were spun down and cell pellets resuspended in 10 mM Hepes/KOH pH 7.6, 4 mM MgCl2, 1 mM DTT. […]
# The mutants were analyzed using a brown color assay. […]
# [2] = tested on: Pseudomonas fluorescens HPPD protein; assay: OD assay: HPPD activity and pI50 from HPP remaining after derivatisation with DNP; format: biochemical; settings: for Activity DeltaE/24 min μg Protein: HPPD enzyme activity of the clone; for tolerance (pI50) Cmpd. 2: inhibitor Cmpd. 2; for tolerance (pI50) DKN: inhibitor diketonitrile (DKN), negative log of molar concentration; for tolerance (pI50) MST: inhibitor mesotrione (MST); for tolerance (pI50) TBT: inhibitor tembotrione (TBT)
# Method in brief: (§1)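 pI50 values for Pseudomonas fluorescens HPPD come from two room-temperature formats. The coupled HGD assay continuously follows maleylacetoacetate at 318 nm (pH 7.6 Tris, 600 μM HPP, FeSO4, ascorbate, catalase, inhibitor up to 100 μM) and classifies inhibition type from time-dependence. The endpoint OD assay measures unconsumed 0.5 mM HPP after 24 min via DNP hydrazone at 405 nm (pH 7.8), testing 5.0×10^−6–5.0×10^−4 M inhibitor.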
# [3] = tested on: Pseudomonas fluorescens HPPD protein; assay: HGD assay: HPPD activity coupled to HGA dioxygenase, pI50 and type of inhibition (time-course); format: biochemical; settings: for tolerance (pI50) DKN: inhibitor diketonitrile (DKN); for tolerance (pI50) DKN / tolerance (pI50) MST / tolerance (pI50) TBT / tolerance (pI50) Cmpd. 1 / tolerance (pI50) Cmpd. 2 / tolerance (pI50) Cmpd. 3 / tolerance (pI50) Cmpd. 4 / tolerance (pI50) Cmpd. 5: HGD assay; for tolerance (pI50) MST: inhibitor mesotrione (MST); for tolerance (pI50) TBT: inhibitor tembotrione (TBT); for tolerance (pI50) Cmpd. 1: inhibitor Cmpd. 1; for tolerance (pI50) Cmpd. 2: inhibitor Cmpd. 2; for tolerance (pI50) Cmpd. 3: inhibitor Cmpd. 3; for tolerance (pI50) Cmpd. 4: inhibitor Cmpd. 4; for tolerance (pI50) Cmpd. 5: inhibitor Cmpd. 5
# Method in brief: as §1
# [4] = HT-single plant expression cassette
# [5] = HT-triple plant expression cassette
Molecule,Number of T0 soybean plants with herbicide tolerance rating 0 (completely bleached) (T0 soybean plants; [5]),Number of T0 soybean plants with herbicide tolerance rating 1 (slight tolerance) (T0 soybean plants; [5]),Number of T0 soybean plants with herbicide tolerance rating 2 (moderate tolerance) (T0 soybean plants; [5]),Number of T0 soybean plants with herbicide tolerance rating 3 (nearly perfect tolerance) (T0 soybean plants; [5]),Activity DeltaE/24 min μg Protein [2] [DeltaE/24 min μg Protein],tolerance (pI50) Cmpd. 2 [2],tolerance (pI50) DKN [2],tolerance (pI50) MST [2],"mechanism of inhibition by diketonitrile (DKN), time-course of inhibition [3]","mechanism of inhibition by mesotrione (MST), time-course of inhibition [3]","mechanism of inhibition by tembotrione (TBT), time-course of inhibition [3]",tolerance (pI50) DKN [3],tolerance (pI50) MST [3],tolerance (pI50) TBT [3],tolerance (pI50) TBT [2],tolerance (pI50) Cmpd. 1 [3],tolerance (pI50) Cmpd. 2 [3],tolerance (pI50) Cmpd. 3 [3],tolerance (pI50) Cmpd. 4 [3],tolerance (pI50) Cmpd. 5 [3],other results
"CS(=O)(=O)c1ccc(C(=O)C2C(=O)CCCC2=O)c([N+](=O)[O-])c1 [mesotrione, 2-[4-(methylsulfonyl)-2-nitrobenzoyl]-1,3-cyclohexanedione, reference compound]",,,,,,,,,,,,,,,,,,,,,"leaf damage of wild type soybean plants (T0 soybean plants; Callisto 4 SC formulation, 3× field rate, one week after spraying): 100%"
"PfEvo43: PfHPPD variant E335P, G336F (protein, HPPD variant - PfEvo43, PfHPPD variant E335P, G336F) MADLYENPMGLMGFEFIEFASPTPGTLEPIFEIMGFTKVATHRSKNVHLYRQGEINLILNNEPNSIASYFAAEHGPSVCGMAFRVKDSQKAYNRALELGAQPIHIDTGPMELNLPAIKGIGGAPLYLIDRFGEGSSIYDIDFVYLEGVERNPVGAGLKVIDHLTHNVYRGRMVYWANFYEKLFNFREARYFDIKGEYTGLTSKAMSAPDGMIRIPLNEESSKGAGQIEEFLMQFNGEGIQHVAFLTDDLVKTWDALKKIGMRFMTAPPDTYYEMLEGRLPDHGEPVDQLQARGILLDGSSVEGDKRLLLQIFSETLMGPVFFEFIQRKGDDGFGPFNFKALFESIERDQVRRGVLTAD",6,18,26,20,0.39,>5.6,4.1,4.6,fully reversible inhibition,fully reversible inhibition,fully reversible inhibition,4.0,5.1,6.0,,,,,,,Number of T0 soybean plants with herbicide tolerance rating 0 (completely bleached) (T0 soybean plants; [4]): 1; Number of T0 soybean plants with herbicide tolerance rating 1 (slight tolerance) (T0 soybean plants; [4]): 13; Number of T0 soybean plants with herbicide tolerance rating 2 (moderate tolerance) (T0 soybean plants; [4]): 25; Number of T0 soybean plants with herbicide tolerance rating 3 (nearly perfect tolerance) (T0 soybean plants; [4]): 34; brown color formation in presence of HPPD inhibitors [1]: darkest color
"FLP130: PfHPPD variant E335P, G336F, A340E (protein, HPPD variant - FLP130, PfHPPD variant E335P, G336F, A340E) MADLYENPMGLMGFEFIEFASPTPGTLEPIFEIMGFTKVATHRSKNVHLYRQGEINLILNNEPNSIASYFAAEHGPSVCGMAFRVKDSQKAYNRALELGAQPIHIDTGPMELNLPAIKGIGGAPLYLIDRFGEGSSIYDIDFVYLEGVERNPVGAGLKVIDHLTHNVYRGRMVYWANFYEKLFNFREARYFDIKGEYTGLTSKAMSAPDGMIRIPLNEESSKGAGQIEEFLMQFNGEGIQHVAFLTDDLVKTWDALKKIGMRFMTAPPDTYYEMLEGRLPDHGEPVDQLQARGILLDGSSVEGDKRLLLQIFSETLMGPVFFEFIQRKGDDGFGPFNFKELFESIERDQVRRGVLTAD",3,18,39,11,0.39,5.5,3.2,3.7,fully reversible inhibitors,fully reversible inhibitors,fully reversible inhibitors,4.3,5.3,6.2,4.8,6.2,6.2,6.4,6.6,6.0,
"FLP129: PfHPPD variant E335P, G336F, K339A, A340Q (protein, HPPD variant - FLP129, PfHPPD variant E335P, G336F, K339A, A340Q) MADLYENPMGLMGFEFIEFASPTPGTLEPIFEIMGFTKVATHRSKNVHLYRQGEINLILNNEPNSIASYFAAEHGPSVCGMAFRVKDSQKAYNRALELGAQPIHIDTGPMELNLPAIKGIGGAPLYLIDRFGEGSSIYDIDFVYLEGVERNPVGAGLKVIDHLTHNVYRGRMVYWANFYEKLFNFREARYFDIKGEYTGLTSKAMSAPDGMIRIPLNEESSKGAGQIEEFLMQFNGEGIQHVAFLTDDLVKTWDALKKIGMRFMTAPPDTYYEMLEGRLPDHGEPVDQLQARGILLDGSSVEGDKRLLLQIFSETLMGPVFFEFIQRKGDDGFGPFNFAQLFESIERDQVRRGVLTAD",13,18,35,12,0.36,5.4,3.3,3.7,fully reversible inhibitors,fully reversible inhibitors,fully reversible inhibitors,4.6,5.0,6.2,4.8,6.1,5.8,5.9,6.6,6.1,
